Test results: US20190169638

Legend:
[1] = tested on: Sleeping Beauty transposase SB10 (synthetic (Sleeping Beauty, reconstructed salmonid Tc1/mariner)?); assay: cell_activity; conditions: transposition in HeLa
[2] = tested on: Sleeping Beauty transposase N123 (PAIRED DNA-binding domain, PAI+RED) (synthetic (Sleeping Beauty, reconstructed salmonid Tc1/mariner)?); assay: EMSA; conditions: reference for CAST sequences

Row | Sequence | activity (% of wild-type transposon) [1] | binding signal [2] [fold]
1 | GTGACGACCCCAAGTGTACATACACGCGCC (double strand) [pT/neo transposon with all four DRs CAST-5] | 2.2 | 
2 | GTGACGACCCCAAGTGTACATACACGCGCC (double strand) [pT/neo transposon with 14DRs replaced by CAST-5] | 3 | 
3 | ACATACACTTAAGTGTATGTAAACTTCCGACTTCAACTTGG / GACTCCAAGTTGAAGTCGGAAGTTTACATACACTTAAGTGTATGT [14DR (outer DR) probe] |  | 1
4 | GTACATACACGCGCACTTCTGACCCACTGG (double strand) [pT/neo transposon with CAST-5/wt hybrid inner DRs] | 130 | 
5 | GTGACGACCCCAAGTGTACATACACGCGCC (double strand) [pT/neo transposon with 12DRs replaced by CAST-5] | 65 | 
